Measurements from publication PMC9427776, “TTYH family members form tetrameric complexes at the cell membrane” (Communications Biology, 2022).
Several values for one entry are separate records, joined by “and”; a condition that tells them apart may be missing. Identical values can stand only once.

Assays:
[1] = molecular target: mTTYH3 ECD1-T4L-ECD2 (mouse | not stated) (UniProt Q6P5F7); experiment: cross-linking; secreted protein from clarified insect cell medium, DSS at 0, 10, 50, 100, 200, 2000 uM; western blot
[2] = molecular target: the molecule itself; experiment: SEC; FSEC of HEK 293 cells solubilised in 1% DDM, Superdex 200 Increase, 150 mM NaCl, 50 mM Tris-HCl pH 7.5, 1 mM DDM; EGFP fluorescence; also after 10 min at 20-80 C (FSEC-TS) or with 20 mM 2-ME, both of which shift the population toward dimers
[3] = molecular target: the molecule itself; experiment: cross-linking; in situ on adherent HEK 293 cells with membrane-impermeable BS3 (0, 10, 50, 100, 200, 2000 uM), 1 h at room temperature; lysis in 1% DDM; SDS-PAGE and anti-FLAG western blot
[4] = molecular target: the molecule itself; experiment: native gel or EMSA; Blue-Native PAGE of HEK 293 lysates in 0.05% (mTTYH1) or 0.1% (mTTYH3) DDM, 50 mM NaCl, 20 mM Tris-HCl pH 7.5; anti-FLAG western blot
[5] = molecular target: the molecule itself; experiment: single-molecule subunit counting (photobleaching steps of EGFP, TIRFM); EGFP fusions at low density in the plasma membrane of living Xenopus laevis oocytes, room temperature; bleaching steps counted by hand, fit to a binomial distribution (p = 0.7)
[6] = molecular target: the molecule itself; experiment: SEC-MALS; purified mTTYH1-GFP-8xHis, 50 uL at 1.18 mg/mL, Superdex 200 Increase, 20 mM Tris pH 7.5, 150 mM NaCl, 0.3 mM DDM; protein conjugate analysis

Question: With “mTTYH3 ECD1-T4L-ECD2 (from UniProt Q6P5F7 107-209; Q6P5F7 260-386) (domain or fragment)” as the molecule, how does the stoichiometry N [1] read?
Answer: 4

B1: mTTYH3-EGFP (HEK 293, pEGFP-N1) (natural protein, mouse, UniProt Q6P5F7 1-524, looked up)
chain: MAGVSYAAPWWVSLLHRLPHFDLRWEATSSQFRPEDADYQQALLLLGATALACLALDLLFLLFYSFWLCCRRRKTDEHLDADCCCTAWCVIITTLVCSAGIAVGFYGNGETSDGIHRATYSLRHANRTVAGVQDRVWDTAAALNRTAEPNLQSLERQLAGRQEPLRAVQRLQTLLGTLLGYTAAIPFWRNPGVSLEVLAEQVDLYDWYRWLGYLGLLLLDVIICLLVLVGLIRSSKGILVGVCLLGVLALVISWGALGLELAVSVGSSDFCVDPDTFVTKMVEEHSVLSGDILQYYLACSPRATNPFQQKLSGSHKALVEMQDVVAELLRNVPREHPATKDPLLRVQEVLNGTEVNLQHLTALVDCRSLHLDYVQALTGFCYDGVEGLIYLALFSFVTALMFSSIVCSIPHTWQQKRGPDDDGEEETAPGPRQAHDSLYRVHMPSLYSCGSSYGSEASIPAAAHTVSNAPVTEYMSQNANFQNPRCENTPLIGRESPPPSYTSSMRAKYLATSQPRPDSSGSGH
notes: mouse Tweety homolog 3 (mTTYH3), intact protein; also called EGFP-fused mTTYH3; mTTYH3-GFP; source: HEK 293 cells, transiently transfected, detergent-solubilised lysate; not shown: EGFP, C-terminal, kept
Question: For B1, which “stoichiometry N” value [2] is on record?
Answer: 4 and 2

B2: FLAG-tagged mTTYH3 (natural protein, mouse, UniProt Q6P5F7 1-524, looked up)
chain: MAGVSYAAPWWVSLLHRLPHFDLRWEATSSQFRPEDADYQQALLLLGATALACLALDLLFLLFYSFWLCCRRRKTDEHLDADCCCTAWCVIITTLVCSAGIAVGFYGNGETSDGIHRATYSLRHANRTVAGVQDRVWDTAAALNRTAEPNLQSLERQLAGRQEPLRAVQRLQTLLGTLLGYTAAIPFWRNPGVSLEVLAEQVDLYDWYRWLGYLGLLLLDVIICLLVLVGLIRSSKGILVGVCLLGVLALVISWGALGLELAVSVGSSDFCVDPDTFVTKMVEEHSVLSGDILQYYLACSPRATNPFQQKLSGSHKALVEMQDVVAELLRNVPREHPATKDPLLRVQEVLNGTEVNLQHLTALVDCRSLHLDYVQALTGFCYDGVEGLIYLALFSFVTALMFSSIVCSIPHTWQQKRGPDDDGEEETAPGPRQAHDSLYRVHMPSLYSCGSSYGSEASIPAAAHTVSNAPVTEYMSQNANFQNPRCENTPLIGRESPPPSYTSSMRAKYLATSQPRPDSSGSGH
notes: mouse Tweety homolog 3 (mTTYH3), intact protein; so the FLAG is probably C-terminal; also called mouse Tweety homolog 3; source: HEK 293 cells (HEK293T), transiently transfected; cross-linked on the cells or in DDM lysate
Question: With B2 as the molecule, how does the “stoichiometry N” value [3] read?
Answer: 4

Question: And the “stoichiometry N” value [4]?
Answer: 2

B3: mTTYH3-EGFP (Xenopus oocytes, pGH19) (natural protein, mouse, UniProt Q6P5F7 1-524, looked up)
chain: MAGVSYAAPWWVSLLHRLPHFDLRWEATSSQFRPEDADYQQALLLLGATALACLALDLLFLLFYSFWLCCRRRKTDEHLDADCCCTAWCVIITTLVCSAGIAVGFYGNGETSDGIHRATYSLRHANRTVAGVQDRVWDTAAALNRTAEPNLQSLERQLAGRQEPLRAVQRLQTLLGTLLGYTAAIPFWRNPGVSLEVLAEQVDLYDWYRWLGYLGLLLLDVIICLLVLVGLIRSSKGILVGVCLLGVLALVISWGALGLELAVSVGSSDFCVDPDTFVTKMVEEHSVLSGDILQYYLACSPRATNPFQQKLSGSHKALVEMQDVVAELLRNVPREHPATKDPLLRVQEVLNGTEVNLQHLTALVDCRSLHLDYVQALTGFCYDGVEGLIYLALFSFVTALMFSSIVCSIPHTWQQKRGPDDDGEEETAPGPRQAHDSLYRVHMPSLYSCGSSYGSEASIPAAAHTVSNAPVTEYMSQNANFQNPRCENTPLIGRESPPPSYTSSMRAKYLATSQPRPDSSGSGH
notes: mouse Tweety homolog 3 (mTTYH3), intact protein; also called EGFP-fused mTTYH3; source: Xenopus laevis oocytes injected with about 1 ng cRNA, at the plasma membrane; not shown: EGFP, C-terminal, kept
Question: With B3 as the molecule, how does the “stoichiometry N” value [5] read?
Answer: 4

B4: EGFP fusion of KCNH1 (natural protein, UniProt O95259 1-989, looked up)
chain: MTMAGGRRGLVAPQNTFLENIVRRSNDTNFVLGNAQIVDWPIVYSNDGFCKLSGYHRAEVMQKSSTCSFMYGELTDKDTIEKVRQTFENYEMNSFEILMYKKNRTPVWFFVKIAPIRNEQDKVVLFLCTFSDITAFKQPIEDDSCKGWGKFARLTRALTSSRGVLQQLAPSVQKGENVHKHSRLAEVLQLGSDILPQYKQEAPKTPPHIILHYCVFKTTWDWIILILTFYTAILVPYNVSFKTRQNNVAWLVVDSIVDVIFLVDIVLNFHTTFVGPAGEVISDPKLIRMNYLKTWFVIDLLSCLPYDVINAFENVDEVSAFMGDPGKIGFADQIPPPLEGRESQGISSLFSSLKVVRLLRLGRVARKLDHYIEYGAAVLVLLVCVFGLAAHWMACIWYSIGDYEIFDEDTKTIRNNSWLYQLAMDIGTPYQFNGSGSGKWEGGPSKNSVYISSLYFTMTSLTSVGFGNIAPSTDIEKIFAVAIMMIGSLLYATIFGNVTTIFQQMYANTNRYHEMLNSVRDFLKLYQVPKGLSERVMDYIVSTWSMSRGIDTEKVLQICPKDMRADICVHLNRKVFKEHPAFRLASDGCLRALAMEFQTVHCAPGDLIYHAGESVDSLCFVVSGSLEVIQDDEVVAILGKGDVFGDVFWKEATLAQSCANVRALTYCDLHVIKRDALQKVLEFYTAFSHSFSRNLILTYNLRKRIVFRKISDVKREEEERMKRKNEAPLILPPDHPVRRLFQRFRQQKEARLAAERGGRDLDDLDVEKGNVLTEHASANHSLVKASVVTVRESPATPVSFQAASTSGVPDHAKLQAPGSECLGPKGGGGDCAKRKSWARFKDACGKSEDWNKVSKAESMETLPERTKASGEATLKKTDSCDSGITKSDLRLDNVGEARSPQDRSPILAEVKHSFYPIPEQTLQATVLEVRHELKEDIKALNAKMTNIEKQLSEILRILTSRRSSQSPQELFEISRPQSPESERDIFGAS
notes: KCNH1, voltage-gated K+ channel; Positive control of the subunit counting; also called EGFP-fused KCNH1; source: Xenopus laevis oocytes injected with 1 ng cRNA, at the plasma membrane
Question: How did the “stoichiometry N” value [5] turn out when B4 was run?
Answer: 4

B5: FLAG-tagged mTTYH1 (natural protein, mouse, UniProt Q9D3A9 1-450, looked up)
chain: MGAPPGYRPSAWVHLLHQLPRADFQLRPVPSGFAPRDQEYQQALLLVAALAGLGLGLSLIFIAVYLIRFCCCRPPEPHGAKSPPPGGGCVTWSCIAALLVGCAGIGIGFYGNSETSDGVSQLSSALLHANHTLSTIDDVVLETVERLGEAVKTELTTLEEVLSVRMELVAATRGARRQAEAAAQYLQGLAFWQGVSLSPVQVAEDVTFVEEYRWLAYVLLLLLVLLVCLFTLLGLAKQSKWLVVVMTAMSLLVLVLSWGSMGLEAATAVGLSDFCSNPDTYVLNLTQEETGLSSDILSYYFLCNQAVSNPFQQRLTLSQRALASIHSQLQGLEREAIPQFSAAQKPLLSLEETLNVTERSFHQLVALLHCRSLHKDYGSALRGLCEDALEGLLFLMLFSLLSAGALATTLCSLPRAWALFPPSDDYDDTDDDDPFNPQESKRFVQWQSSI
notes: mouse Tweety homolog 1 (mTTYH1), intact protein; so the FLAG is probably C-terminal; also called mouse Tweety homolog 1; source: HEK 293 cells (HEK293T), transiently transfected; cross-linked on the cells or in DDM lysate
Question: How did the “stoichiometry N” value [3] turn out when B5 was run?
Answer: 4

Question: What about the “stoichiometry N” value [4] of the same molecule?
Answer: 2

B6: mTTYH1-EGFP (HEK 293, pEGFP-N1) (natural protein, mouse, UniProt Q9D3A9 1-450, looked up)
chain: MGAPPGYRPSAWVHLLHQLPRADFQLRPVPSGFAPRDQEYQQALLLVAALAGLGLGLSLIFIAVYLIRFCCCRPPEPHGAKSPPPGGGCVTWSCIAALLVGCAGIGIGFYGNSETSDGVSQLSSALLHANHTLSTIDDVVLETVERLGEAVKTELTTLEEVLSVRMELVAATRGARRQAEAAAQYLQGLAFWQGVSLSPVQVAEDVTFVEEYRWLAYVLLLLLVLLVCLFTLLGLAKQSKWLVVVMTAMSLLVLVLSWGSMGLEAATAVGLSDFCSNPDTYVLNLTQEETGLSSDILSYYFLCNQAVSNPFQQRLTLSQRALASIHSQLQGLEREAIPQFSAAQKPLLSLEETLNVTERSFHQLVALLHCRSLHKDYGSALRGLCEDALEGLLFLMLFSLLSAGALATTLCSLPRAWALFPPSDDYDDTDDDDPFNPQESKRFVQWQSSI
notes: mouse Tweety homolog 1 (mTTYH1), intact protein; also called EGFP-fused mTTYH1; source: HEK 293 cells, transiently transfected, detergent-solubilised lysate; not shown: EGFP, C-terminal, kept
Question: Which “stoichiometry N” value [2] does the source give for B6 here?
Answer: 4 and 2

B7: mTTYH1-EGFP (Xenopus oocytes, pGH19) (natural protein, mouse, UniProt Q9D3A9 1-450, looked up)
chain: MGAPPGYRPSAWVHLLHQLPRADFQLRPVPSGFAPRDQEYQQALLLVAALAGLGLGLSLIFIAVYLIRFCCCRPPEPHGAKSPPPGGGCVTWSCIAALLVGCAGIGIGFYGNSETSDGVSQLSSALLHANHTLSTIDDVVLETVERLGEAVKTELTTLEEVLSVRMELVAATRGARRQAEAAAQYLQGLAFWQGVSLSPVQVAEDVTFVEEYRWLAYVLLLLLVLLVCLFTLLGLAKQSKWLVVVMTAMSLLVLVLSWGSMGLEAATAVGLSDFCSNPDTYVLNLTQEETGLSSDILSYYFLCNQAVSNPFQQRLTLSQRALASIHSQLQGLEREAIPQFSAAQKPLLSLEETLNVTERSFHQLVALLHCRSLHKDYGSALRGLCEDALEGLLFLMLFSLLSAGALATTLCSLPRAWALFPPSDDYDDTDDDDPFNPQESKRFVQWQSSI
notes: mouse Tweety homolog 1 (mTTYH1), intact protein; also called EGFP-fused mTTYH1; source: Xenopus laevis oocytes injected with about 1 ng cRNA, at the plasma membrane; not shown: EGFP, C-terminal, kept
Question: With B7 as the molecule, how does the “stoichiometry N” value [5] read?
Answer: 4

B8: mTTYH1-GFP-8xHis (natural protein, mouse, UniProt Q9D3A9 1-450, looked up)
chain: MGAPPGYRPSAWVHLLHQLPRADFQLRPVPSGFAPRDQEYQQALLLVAALAGLGLGLSLIFIAVYLIRFCCCRPPEPHGAKSPPPGGGCVTWSCIAALLVGCAGIGIGFYGNSETSDGVSQLSSALLHANHTLSTIDDVVLETVERLGEAVKTELTTLEEVLSVRMELVAATRGARRQAEAAAQYLQGLAFWQGVSLSPVQVAEDVTFVEEYRWLAYVLLLLLVLLVCLFTLLGLAKQSKWLVVVMTAMSLLVLVLSWGSMGLEAATAVGLSDFCSNPDTYVLNLTQEETGLSSDILSYYFLCNQAVSNPFQQRLTLSQRALASIHSQLQGLEREAIPQFSAAQKPLLSLEETLNVTERSFHQLVALLHCRSLHKDYGSALRGLCEDALEGLLFLMLFSLLSAGALATTLCSLPRAWALFPPSDDYDDTDDDDPFNPQESKRFVQWQSSI
modifications: N-glycosylated (HexNAc at Asn; sites not given)
notes: mouse Tweety homolog 1 (mTTYH1), intact protein; also called purified mTTYH1-GFP; intact mTTYH1-GFP; not shown: EGFP, C-terminal, kept; His8, C-terminal, kept
Question: With B8 as the molecule, how does the “stoichiometry N” value [6] read?
Answer: 4 and 2
